Here are results for two molecules from patent US20100004162A1 (ROCKEFELLER UNIVERSITY, published 2010).

In assay [1] the target is chicken α4β2 nicotinic acetylcholine receptor expressed in Xenopus oocytes (chicken) (UniProt P09482). The assay is described as follows: cell-based or functional assay.
Assay [2] addresses T1, nAChR alpha 7 subunit (chick alpha 7 construct) expressed in 293T cells (chick, UniProt P22770 24-502).
T1 construct: It was in the extract of transfected 293T cells, separated by SDS-PAGE and probed by Far Western
The assay is described as follows: Far Western blot of extracts of transfected 293T cells. The text has this: Far Western Analysis. A fragment of the Lynx1 cDNA corresponding to the mature polypeptide was cloned in frame to the C-terminus of the coding sequence for the secreted human placental alkaline phosphatase (referred to as Lynx/AP). The APtag-4 vector was provided by Dr. John Flanagan (Cheng, H.-J. et al (1995) Cell 82, 371-381). Constructs were transfected into 293T cells using calcium phosphate precipitation. Conditioned media was collected and treated as described (Cheng, H.-J. et al (1995) Cell 82, 371-381): 20 μg of crude extract was electrophoretically separated and transferred to PVDF membrane (Immobilon P, Millipore). Filters were renatured as specified (Rodriguez, P. L. & Carrasco, L. (1994) Biotech. 17, 702-707), incubated overnight with equal amounts of cultured supernatants containing lynx/AP or unfused AP, washed, and treated with NBT/BCIP substrate according to manufacturer's directions (Pharmacia). To determine the relative activity of Lynx/AP protein compared to unfused AP, a dilution series of cultured supernatants was blotted onto nitrocellulose paper with a slot blot apparatus and reacted for AP activity.
The cells were harvested and lysed and cell extract was run out on an SDS-PAGE gel. […]

Where “and” joins values, the source holds several entries; their conditions need not be identical. Equal values may be shown once.

chicken α4β2 nicotinic acetylcholine receptor expressed in Xenopus oocytes (chicken), sequence (P09482 24-622, chain 1 of 2): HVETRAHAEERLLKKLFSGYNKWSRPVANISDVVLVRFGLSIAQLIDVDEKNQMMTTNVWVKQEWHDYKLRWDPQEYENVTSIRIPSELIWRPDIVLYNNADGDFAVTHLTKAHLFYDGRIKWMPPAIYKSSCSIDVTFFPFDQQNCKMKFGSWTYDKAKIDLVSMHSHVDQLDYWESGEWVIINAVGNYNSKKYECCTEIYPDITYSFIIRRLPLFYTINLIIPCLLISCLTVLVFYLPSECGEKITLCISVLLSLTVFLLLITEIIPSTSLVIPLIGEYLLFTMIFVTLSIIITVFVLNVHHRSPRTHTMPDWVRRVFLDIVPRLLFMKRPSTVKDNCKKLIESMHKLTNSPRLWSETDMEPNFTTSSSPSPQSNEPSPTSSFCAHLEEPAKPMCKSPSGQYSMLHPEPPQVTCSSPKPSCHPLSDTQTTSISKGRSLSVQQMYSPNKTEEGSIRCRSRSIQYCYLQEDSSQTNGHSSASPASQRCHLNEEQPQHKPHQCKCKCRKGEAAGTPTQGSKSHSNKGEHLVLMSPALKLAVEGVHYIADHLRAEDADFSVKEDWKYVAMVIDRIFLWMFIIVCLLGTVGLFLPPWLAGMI
chicken α4β2 nicotinic acetylcholine receptor expressed in Xenopus oocytes (chicken), sequence (P09484 19-491, chain 2 of 2, further chain): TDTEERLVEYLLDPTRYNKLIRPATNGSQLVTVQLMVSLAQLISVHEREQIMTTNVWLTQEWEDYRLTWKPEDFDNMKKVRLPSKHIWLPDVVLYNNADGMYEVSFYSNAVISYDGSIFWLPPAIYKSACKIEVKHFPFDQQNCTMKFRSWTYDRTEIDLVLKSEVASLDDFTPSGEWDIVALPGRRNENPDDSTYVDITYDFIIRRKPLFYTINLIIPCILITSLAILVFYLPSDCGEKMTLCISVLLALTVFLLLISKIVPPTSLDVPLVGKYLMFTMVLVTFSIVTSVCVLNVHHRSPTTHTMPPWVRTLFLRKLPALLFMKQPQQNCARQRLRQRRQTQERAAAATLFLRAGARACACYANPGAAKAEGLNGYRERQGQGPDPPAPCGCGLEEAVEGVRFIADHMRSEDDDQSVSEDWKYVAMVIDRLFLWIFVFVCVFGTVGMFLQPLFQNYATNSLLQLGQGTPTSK
T1 sequence (P22770 24-502): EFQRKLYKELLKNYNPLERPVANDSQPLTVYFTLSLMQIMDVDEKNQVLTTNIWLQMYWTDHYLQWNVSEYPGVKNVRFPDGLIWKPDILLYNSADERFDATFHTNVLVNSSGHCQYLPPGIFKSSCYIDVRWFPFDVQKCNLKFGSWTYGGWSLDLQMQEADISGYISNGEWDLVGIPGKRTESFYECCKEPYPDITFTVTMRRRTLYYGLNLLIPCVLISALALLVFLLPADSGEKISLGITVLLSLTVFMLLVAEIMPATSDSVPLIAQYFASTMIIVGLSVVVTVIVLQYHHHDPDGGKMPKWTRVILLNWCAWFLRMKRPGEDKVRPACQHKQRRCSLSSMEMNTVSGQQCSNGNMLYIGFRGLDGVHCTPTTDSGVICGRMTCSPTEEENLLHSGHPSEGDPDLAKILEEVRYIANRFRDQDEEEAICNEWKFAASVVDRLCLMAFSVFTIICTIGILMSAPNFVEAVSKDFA

Take “Lynx1-HA (CMV2611), column purified Lynx1 (from UniProt P0DP60 21-92) (ligand)”: the amplitude of the ACh-evoked macroscopic currents in assay [1] was 30% to 40% (2×) and 35%.

B1: Lynx/AP fusion protein (other)
chain: LECHVCAYNGDNCFKPMRCPAMATYCMTTRTYFTPYRMKVRKSCVPSCFETVYDGYSKHASATSCCQYYLCN
notes: It was used as conditioned medium of transfected 293T cells; also called Lynx1-alkaline phosphatase (AP) fusion; Lynx/AP supernatant; not shown: secreted human placental alkaline phosphatase from the APtag-4 vector
For the molecule B1, the binding result in assay [2] is “binds”.
